We go through 2 molecules from article PMC7005279, “Cryo-EM study of an archaeal 30S initiation complex gives insights into evolution of translation initiation” (Communications Biology, 2020).

The target in assay [1] is T1, ribosomal protein uS9 of the Pyrococcus abyssi 30S subunit (P. abyssi, UniProt Q9V195 1-135).
T1 construct: 30S ribosomal protein uS9 (S9), Pyrococcus abyssi; its C-terminal residue is printed as R135; Subunit of the native 30S; source: endogenous, in 30S subunits purified from P. abyssi
The assay is described as follows: cryo-EM structure; IC2 complex (Pa-30S:mRNA:aIF1A:aIF2:GDPNP:Met-tRNAi) purified on TALON by N-terminally tagged aIF2β and aIF2α; overall 3.2 Å, classes IC2A 4.2 Å and IC2B 3.3 Å; aIF1A and aIF2 placed by rigid body fitting. To be noted: both partners purified.

The target of assay [2] is ribosomal protein uS11 of the Pyrococcus abyssi 30S subunit (P. abyssi, UniProt P62010 1-137). The assay is described as above. Conditions: both partners purified.

T1 sequence (Q9V195 whole entry): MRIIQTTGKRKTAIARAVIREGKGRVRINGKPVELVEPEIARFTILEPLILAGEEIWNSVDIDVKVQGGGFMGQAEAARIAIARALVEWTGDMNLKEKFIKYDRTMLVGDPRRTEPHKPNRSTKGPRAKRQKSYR

B1: ribosomal protein uS19 of the Pyrococcus abyssi 30S subunit (natural protein)
chain: not shown
notes: 30S ribosomal protein uS19 (S19), Pyrococcus abyssi; Subunit of the native 30S; source: endogenous, in 30S subunits purified from P. abyssi
Turning to B1, the binding result in assay [1] was “binds”.

B2: ribosomal protein uS7 of the Pyrococcus abyssi 30S subunit (natural protein)
chain: not shown
notes: Subunit of the native 30S; source: endogenous, in 30S subunits purified from P. abyssi
As to B2, in assay [2], the binding result is “binds”.
